Drawing on PMC12817906, “SVCV phosphoprotein hijacks phase separation to immobilize the IRF3-TBK1 signaling axis and suppress interferon antiviral immunity” (Journal of Virology, 2025), this text covers Kd for two molecules.

“And” between values parts separate entries of the source, which are not always exact repeats. Equal entries are not always repeated.

Data set [1] has as its target purified recombinant zebrafish IRF3 (His-tagged) (zebrafish). In words: MST; Monolith NT.115; homotypic titration (SVCV-P with SVCV-P, IRF3 with IRF3), labeled protein with unlabeled ligand at 16 concentrations, room temperature; which label was used is not told.
In data set [2] the target is mCherry-tagged zebrafish TBK1 protein (zebrafish). In words: MST; Monolith NT.115; mCherry-tagged TBK1 as the fluorescent protein, unlabeled SVCV-P or IRF3 at 16 concentrations, protein storage buffer, room temperature 10 min, 40% LED, medium MST power.
For data set [3], the target named is T1, mCherry-tagged zebrafish TBK1 protein (zebrafish, UniProt A0ACM8QAS8 1-727).
T1 construct: also called mCherry-TBK1; pFastBac1-mCherry-His-TBK1; source: Sf9 (baculovirus), purified (Ni-NTA)
T1 sequence: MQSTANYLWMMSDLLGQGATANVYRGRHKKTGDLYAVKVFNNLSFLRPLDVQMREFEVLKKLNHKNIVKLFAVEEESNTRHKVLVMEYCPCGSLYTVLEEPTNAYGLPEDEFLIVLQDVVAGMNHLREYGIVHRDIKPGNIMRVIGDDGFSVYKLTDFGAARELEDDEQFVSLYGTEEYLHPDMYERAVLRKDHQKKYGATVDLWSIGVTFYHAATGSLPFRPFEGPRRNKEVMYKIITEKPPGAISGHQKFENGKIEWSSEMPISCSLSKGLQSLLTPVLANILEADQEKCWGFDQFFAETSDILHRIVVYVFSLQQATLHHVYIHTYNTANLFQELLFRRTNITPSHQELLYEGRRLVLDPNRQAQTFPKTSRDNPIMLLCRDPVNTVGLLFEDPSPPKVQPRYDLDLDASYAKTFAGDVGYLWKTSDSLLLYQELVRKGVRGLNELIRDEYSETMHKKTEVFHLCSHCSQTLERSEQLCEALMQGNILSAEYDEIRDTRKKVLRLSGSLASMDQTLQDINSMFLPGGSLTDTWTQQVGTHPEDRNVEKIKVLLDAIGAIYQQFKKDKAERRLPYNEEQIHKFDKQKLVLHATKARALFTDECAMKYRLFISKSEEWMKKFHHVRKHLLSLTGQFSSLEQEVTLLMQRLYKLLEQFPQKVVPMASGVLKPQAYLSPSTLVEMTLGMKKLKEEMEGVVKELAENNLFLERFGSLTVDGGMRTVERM
Described as above. To be noted: both partners purified.

Data set [4] concerns the molecule itself. In words: MST; Monolith NT.115; homotypic titration (SVCV-P with SVCV-P, IRF3 with IRF3), labeled protein with unlabeled ligand at 16 concentrations, room temperature; which label was used is not told.

What is called Kd is the constant that tells how readily two partners part at equilibrium. On to “purified recombinant zebrafish IRF3 (His-tagged) (natural protein)”, for which the Kd was 70 µM in data set [1] and 81.7 µM in data set [2].

B1: purified recombinant SVCV-P (His-tagged) (natural protein)
chain: MSLHSKLSESLKAYADLDKTVKEIEEQVSSMEEPVPKTVKYVTFEENLSEEEWESDSGDDDEDSIDDSLIPDYLRESSSITVDEDEEDQKEDMEEHLPTVSWEEEPTGIDIGFGPGIVMPSVSNHEGGTYVRYNGLGGVDPNCKDLISKMMRSLIGQIGNKYGYDIDLFDYQGDFLEVFLPHKPSKEDVRPDIRIGKKNEEGTSKQVSKPRGKEKIVLKTGDECGRFPMNKEAKKREPEGLWEVMKVLSVQFDPWKEDEPPLSLTIRDLFISESEFRLHCNHSQTEREMALVGIKLRRLYNKLYQKYRL
notes: phosphoprotein (P) of spring viremia of carp virus; The MST methods say only 'purified SVCV-P'; the His-only construct is surmised (EGFP-GST, EGFP-His and baculovirus EGFP-His forms were also made); also called pET28a-SVCV-P-His; source: E. coli BL21 (DE3), purified (Ni-NTA)
On to B1, for which the Kd in data set [3] is 8.34 µM and 2.98 µM; in data set [4] it was 30.4 µM.
